Numbered stars: 1 amine (or outer) side, 2 acyl side, 3 side chain; on linkers, the order of the positions; unused ones are H or OH. Square brackets hold non-standard residues; d marks the D form. * marks the point of attachment. Cholesteryloxycarbonyl = CC(C)CCC[C@@H](C)[C@H]1CC[C@H]2[C@@H]3CC=C4C[C@@H](OC(=O)*)CC[C@]4(C)[C@H]3CC[C@]12C; Ser(Me) = COC[C@H](N[*:1])C(=O)[*:2]; hLeu = CC(C)CC[C@H](N)C(=O)O; Orn = NCCC[C@H](N)C(=O)O; Nva = CCC[C@H](N)C(=O)O; Dap = NC[C@H](N)C(=O)O
What follows are binders tested against protein kinase B (PKB) (assay: cell-based or functional assay).

Row | IC50, in vitro kinase assay PKB [nM] | Binder
1 | 1000 | Cholesteryloxycarbonyl-GGGGGGRPR[Nva]Y[Dap][hLeu]-NH2 (SMILES CCC[C@H](NC(=O)[C@H](CCCNC(=N)N)NC(=O)[C@@H]1CCCN1C(=O)[C@H](CCCNC(=N)N)NC(=O)CNC(=O)CNC(=O)CNC(=O)CNC(=O)CNC(=O)CNC(=O)O[C@H]1CC[C@@]2(C)C(=CC[C@H]3[C@@H]4CC[C@H]([C@H](C)CCCC(C)C)[C@@]4(C)CC[C@@H]32)C1)C(=O)N[C@@H](Cc1ccc(O)cc1)C(=O)N[C@@H](CN)C(=O)N[C@@H](CCC(C)C)C(N)=O) [PTR 6336]
2 | 200 | Cholesteryloxycarbonyl-KKKRPR[Nva]Y[Dap][hLeu]-OH (SMILES CCC[C@H](NC(=O)[C@H](CCCNC(=N)N)NC(=O)[C@@H]1CCCN1C(=O)[C@H](CCCNC(=N)N)NC(=O)[C@H](CCCCN)NC(=O)[C@H](CCCCN)NC(=O)[C@H](CCCCN)NC(=O)O[C@H]1CC[C@@]2(C)C(=CC[C@H]3[C@@H]4CC[C@H]([C@H](C)CCCC(C)C)[C@@]4(C)CC[C@@H]32)C1)C(=O)N[C@@H](Cc1ccc(O)cc1)C(=O)N[C@@H](CN)C(=O)N[C@@H](CCC(C)C)C(=O)O) [PTR 6352]
3 | 200 | Cholesteryloxycarbonyl-RPR[Nva]Y[Dap][hLeu][dK][dK][dK]-NH2 (SMILES CCC[C@H](NC(=O)[C@H](CCCNC(=N)N)NC(=O)[C@@H]1CCCN1C(=O)[C@H](CCCNC(=N)N)NC(=O)O[C@H]1CC[C@@]2(C)C(=CC[C@H]3[C@@H]4CC[C@H]([C@H](C)CCCC(C)C)[C@@]4(C)CC[C@@H]32)C1)C(=O)N[C@@H](Cc1ccc(O)cc1)C(=O)N[C@@H](CN)C(=O)N[C@@H](CCC(C)C)C(=O)N[C@H](CCCCN)C(=O)N[C@H](CCCCN)C(=O)N[C@H](CCCCN)C(N)=O) [PTR 6346]
4 | 300 | Cholesteryloxycarbonyl-KKKRPR[Nva]Y[Dap][hLeu]-NH2 (SMILES CCC[C@H](NC(=O)[C@H](CCCNC(=N)N)NC(=O)[C@@H]1CCCN1C(=O)[C@H](CCCNC(=N)N)NC(=O)[C@H](CCCCN)NC(=O)[C@H](CCCCN)NC(=O)[C@H](CCCCN)NC(=O)O[C@H]1CC[C@@]2(C)C(=CC[C@H]3[C@@H]4CC[C@H]([C@H](C)CCCC(C)C)[C@@]4(C)CC[C@@H]32)C1)C(=O)N[C@@H](Cc1ccc(O)cc1)C(=O)N[C@@H](CN)C(=O)N[C@@H](CCC(C)C)C(N)=O) [PTR 6344]
5 | 1000 | Cholesteryloxycarbonyl-GGGGRPR[Nva]Y[Dap][hLeu]-NH2 (SMILES CCC[C@H](NC(=O)[C@H](CCCNC(=N)N)NC(=O)[C@@H]1CCCN1C(=O)[C@H](CCCNC(=N)N)NC(=O)CNC(=O)CNC(=O)CNC(=O)CNC(=O)O[C@H]1CC[C@@]2(C)C(=CC[C@H]3[C@@H]4CC[C@H]([C@H](C)CCCC(C)C)[C@@]4(C)CC[C@@H]32)C1)C(=O)N[C@@H](Cc1ccc(O)cc1)C(=O)N[C@@H](CN)C(=O)N[C@@H](CCC(C)C)C(N)=O) [PTR 6332]
6 | 170 | {Cholesteryl‑O‑CO‑(CH2)2‑CO}-[dK][dK][dK]RPR[Nva]Y[Dap][hLeu]-NH2 [PTR 6356]
7 | 2000 | Cholesteryloxycarbonyl-RPH[Nva]Y[Dap][hLeu]-NH2 (SMILES CCC[C@H](NC(=O)[C@H](Cc1c[nH]cn1)NC(=O)[C@@H]1CCCN1C(=O)[C@H](CCCNC(=N)N)NC(=O)O[C@H]1CC[C@@]2(C)C(=CC[C@H]3[C@@H]4CC[C@H]([C@H](C)CCCC(C)C)[C@@]4(C)CC[C@@H]32)C1)C(=O)N[C@@H](Cc1ccc(O)cc1)C(=O)N[C@@H](CN)C(=O)N[C@@H](CCC(C)C)C(N)=O) [PTR 6376]
8 | > 10000 | H-RPH[Nva]Y[Dap][hLeu]-NH2 (SMILES CCC[C@H](NC(=O)[C@H](Cc1c[nH]cn1)NC(=O)[C@@H]1CCCN1C(=O)[C@@H](N)CCCNC(=N)N)C(=O)N[C@@H](Cc1ccc(O)cc1)C(=O)N[C@@H](CN)C(=O)N[C@@H](CCC(C)C)C(N)=O) [PTR 6368]
9 | > 10000 | H-RP[Orn][Nva]Y[Dap][hLeu]-NH2 (SMILES CCC[C@H](NC(=O)[C@H](CCCN)NC(=O)[C@@H]1CCCN1C(=O)[C@@H](N)CCCNC(=N)N)C(=O)N[C@@H](Cc1ccc(O)cc1)C(=O)N[C@@H](CN)C(=O)N[C@@H](CCC(C)C)C(N)=O) [PTR 6372]
10 | > 10000 | XPRXYXX (Nva, Dap, Hol; C-terminal NH2) [PTR 6366]
11 | 1400 | XPRXYXX (N-terminal Cholesteryl-O-CO-; Nva, Dap, Hol; C-terminal NH2) [PTR 6374]
12 | 200 | Cholesteryloxycarbonyl-[dK][dK][dK]RPR[Nva]Y[Ser(Me)][hLeu]-NH2 (SMILES CCC[C@H](NC(=O)[C@H](CCCNC(=N)N)NC(=O)[C@@H]1CCCN1C(=O)[C@H](CCCNC(=N)N)NC(=O)[C@@H](CCCCN)NC(=O)[C@@H](CCCCN)NC(=O)[C@@H](CCCCN)NC(=O)O[C@H]1CC[C@@]2(C)C(=CC[C@H]3[C@@H]4CC[C@H]([C@H](C)CCCC(C)C)[C@@]4(C)CC[C@@H]32)C1)C(=O)N[C@@H](Cc1ccc(O)cc1)C(=O)N[C@@H](COC)C(=O)N[C@@H](CCC(C)C)C(N)=O) [PTR 6348]
13 | 100 | Cholesteryloxycarbonyl-[dK][dK][dK][dK][dK][dK]RPR[Nva]Y[Ser(Me)][hLeu]-NH2 (SMILES CCC[C@H](NC(=O)[C@H](CCCNC(=N)N)NC(=O)[C@@H]1CCCN1C(=O)[C@H](CCCNC(=N)N)NC(=O)[C@@H](CCCCN)NC(=O)[C@@H](CCCCN)NC(=O)[C@@H](CCCCN)NC(=O)[C@@H](CCCCN)NC(=O)[C@@H](CCCCN)NC(=O)[C@@H](CCCCN)NC(=O)O[C@H]1CC[C@@]2(C)C(=CC[C@H]3[C@@H]4CC[C@H]([C@H](C)CCCC(C)C)[C@@]4(C)CC[C@@H]32)C1)C(=O)N[C@@H](Cc1ccc(O)cc1)C(=O)N[C@@H](COC)C(=O)N[C@@H](CCC(C)C)C(N)=O) [PTR 6338]
14 | > 10000 | XPHXYXX (Nva, Dap, Hol; C-terminal NH2) [PTR 6370]
15 | 1000 | Cholesteryloxycarbonyl-GGGGGRPR[Nva]Y[Dap][hLeu]-NH2 (SMILES CCC[C@H](NC(=O)[C@H](CCCNC(=N)N)NC(=O)[C@@H]1CCCN1C(=O)[C@H](CCCNC(=N)N)NC(=O)CNC(=O)CNC(=O)CNC(=O)CNC(=O)CNC(=O)O[C@H]1CC[C@@]2(C)C(=CC[C@H]3[C@@H]4CC[C@H]([C@H](C)CCCC(C)C)[C@@]4(C)CC[C@@H]32)C1)C(=O)N[C@@H](Cc1ccc(O)cc1)C(=O)N[C@@H](CN)C(=O)N[C@@H](CCC(C)C)C(N)=O) [PTR 6334]

— patent US20070078092A1 (CUREGENICS, published 2007)
